According to the supplement of paper PMC6757056:
± gives the standard deviation of the averaged measurements.

B1: library; a variant is named by its letters at N, in order (parent)
chain: GCUGUCACCGGUGUAUUACCCUAGUGGUCGACCGGUCUGAUGAGUCUNNNNNNAGACGAAACAGC

Columns and labels:
hypoxanthine [1] = variants of: B1; assay: normalized RNA/DNA level with ligand (relative to sTRSVctl = 100) (log10 (% of sTRSVctl)); ligand: hypoxanthine (xanthine aptamer); higher = less ribozyme self-cleavage, higher mRNA level; conditions: ligand concentration (+) RNA-Seq: 5 mM, HEK293T, reporter: mCherry (pCS4076), ligand present: yes
Summary of the method: (§1)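 Ribozyme switch library plasmids linked to reporters were introduced into HEK293T cells at 4 µg per 6-well well, with ligand, if any, added 1 h before. Total RNA was extracted with EDTA 72 h later, reverse-transcribed, amplified, barcoded and sequenced. RNA level was computed from RNA over DNA reads relative to a spiked-in non-cleaving sequence or the top sequences, then scaled and log-transformed. The top set was 25 sequences, values were ×100 and log10, and the cutoff was ≥100 DNA reads.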

hypoxanthine [2] = variants of: B1; assay: normalized RNA/DNA level without ligand (relative to sTRSVctl = 100) (log10 (% of sTRSVctl)); ligand: hypoxanthine (xanthine aptamer); higher = less ribozyme self-cleavage, higher mRNA level; conditions: HEK293T, reporter: mCherry (pCS4076), ligand present: no
Summary of the method: as §1

Variant	normalized RNA/DNA level with ligand (log10) (hypoxanthine [1])	normalized RNA/DNA level without ligand (log10) (hypoxanthine [2])
GCUGUCACCGGUGUAUUACCCUAGUGGUCGACCGGUCUGAUGAGUCUUGAAUAAGACGAAACAGC [UGAAUA]	1.93 ± 0.026	1.86 ± 0.019
GCUGUCACCGGUGUAUUACCCUAGUGGUCGACCGGUCUGAUGAGUCUUGAAUCAGACGAAACAGC [UGAAUC]	1.943 ± 0.013	1.96 ± 0.022
GCUGUCACCGGUGUAUUACCCUAGUGGUCGACCGGUCUGAUGAGUCUUGAAUUAGACGAAACAGC [UGAAUU]	1.93 ± 0.021	1.897 ± 0.014
GCUGUCACCGGUGUAUUACCCUAGUGGUCGACCGGUCUGAUGAGUCUUGAAUGAGACGAAACAGC [UGAAUG]	1.9 ± 0.0011	1.75 ± 0.061
GCUGUCACCGGUGUAUUACCCUAGUGGUCGACCGGUCUGAUGAGUCUAGAAUUAGACGAAACAGC [AGAAUU]	1.926 ± 0.017	1.86 ± 0.025
GCUGUCACCGGUGUAUUACCCUAGUGGUCGACCGGUCUGAUGAGUCUAGAAUAAGACGAAACAGC [AGAAUA]	1.92 ± 0.012	1.77 ± 0.03
GCUGUCACCGGUGUAUUACCCUAGUGGUCGACCGGUCUGAUGAGUCUAGAAUCAGACGAAACAGC [AGAAUC]	1.94 ± 0.086	1.91 ± 0.048
GCUGUCACCGGUGUAUUACCCUAGUGGUCGACCGGUCUGAUGAGUCUCGAAGCAGACGAAACAGC [CGAAGC]	1.948 ± 0.0063	1.811 ± 0.012
GCUGUCACCGGUGUAUUACCCUAGUGGUCGACCGGUCUGAUGAGUCUCGAAGUAGACGAAACAGC [CGAAGU]	1.93 ± 0.022	1.86 ± 0.046
GCUGUCACCGGUGUAUUACCCUAGUGGUCGACCGGUCUGAUGAGUCUUGACCUAGACGAAACAGC [UGACCU]	2.004 ± 0.012	1.92 ± 0.021
GCUGUCACCGGUGUAUUACCCUAGUGGUCGACCGGUCUGAUGAGUCUUGACCAAGACGAAACAGC [UGACCA]	1.93 ± 0.058	1.886 ± 0.0032
GCUGUCACCGGUGUAUUACCCUAGUGGUCGACCGGUCUGAUGAGUCUUGACCCAGACGAAACAGC [UGACCC]	2.002 ± 0.0071	1.94 ± 0.024
GCUGUCACCGGUGUAUUACCCUAGUGGUCGACCGGUCUGAUGAGUCUUGACCGAGACGAAACAGC [UGACCG]	1.96 ± 0.094	1.79 ± 0.046
GCUGUCACCGGUGUAUUACCCUAGUGGUCGACCGGUCUGAUGAGUCUGGAAUCAGACGAAACAGC [GGAAUC]	1.9 ± 0.035	1.81 ± 0.057
GCUGUCACCGGUGUAUUACCCUAGUGGUCGACCGGUCUGAUGAGUCUAGACACAGACGAAACAGC [AGACAC]	1.92 ± 0.025	1.76 ± 0.033
GCUGUCACCGGUGUAUUACCCUAGUGGUCGACCGGUCUGAUGAGUCUAGACCGAGACGAAACAGC [AGACCG]	1.925 ± 0.004	1.75 ± 0.067
GCUGUCACCGGUGUAUUACCCUAGUGGUCGACCGGUCUGAUGAGUCUAGACCUAGACGAAACAGC [AGACCU]	1.92 ± 0.023	1.88 ± 0.044
GCUGUCACCGGUGUAUUACCCUAGUGGUCGACCGGUCUGAUGAGUCUAGACCAAGACGAAACAGC [AGACCA]	1.93 ± 0.046	1.85 ± 0.015
GCUGUCACCGGUGUAUUACCCUAGUGGUCGACCGGUCUGAUGAGUCUGGACCAAGACGAAACAGC [GGACCA]	1.916 ± 0.0027	1.881 ± 0.0056
GCUGUCACCGGUGUAUUACCCUAGUGGUCGACCGGUCUGAUGAGUCUGGACCUAGACGAAACAGC [GGACCU]	1.98 ± 0.056	1.9838 ± 0.0012
GCUGUCACCGGUGUAUUACCCUAGUGGUCGACCGGUCUGAUGAGUCUGGACCCAGACGAAACAGC [GGACCC]	1.96 ± 0.065	1.93 ± 0.023
